What was measured:
[1] = target: MasR, endogenous in mouse lung (mouse (endogenous in CD-1 mouse lung)) (UniProt P30554); experiment: proximity ligation; in situ PLA on fixed 30 µm lung sections of adult CD-1 mice; primary antibodies to the receptor and to ACE2, Duolink II probes anti-rabbit plus and anti-mouse minus; confocal microscopy
[2] = target: AT1R, endogenous in mouse lung (mouse (endogenous in CD-1 mouse lung)) (UniProt P29754); experiment: as above
[3] = target: MasR, endogenous in mouse lung (mouse (endogenous in CD-1 mouse lung)) (UniProt P30554); experiment: proximity ligation; in situ PLA on fixed 30 µm lung sections of 19-day fetal CD-1 mice; primary antibodies to the receptor and to ACE2, Duolink II probes anti-rabbit plus and anti-mouse minus; confocal microscopy
[4] = target: AT1R, endogenous in mouse lung (mouse (endogenous in CD-1 mouse lung)) (UniProt P29754); experiment: as above
[5] = target: AT2R, endogenous in mouse lung (mouse (endogenous in CD-1 mouse lung)) (UniProt P35374); experiment: proximity ligation; in situ PLA on fixed 30 µm lung sections of adult CD-1 mice; primary antibodies to the receptor and to ACE2, Duolink II probes anti-rabbit plus and anti-mouse minus; confocal microscopy
[6] = target: AT2R, endogenous in mouse lung (mouse (endogenous in CD-1 mouse lung)) (UniProt P35374); experiment: proximity ligation; in situ PLA on fixed 30 µm lung sections of 19-day fetal CD-1 mice; primary antibodies to the receptor and to ACE2, Duolink II probes anti-rabbit plus and anti-mouse minus; confocal microscopy

UniProt P30554, sequence (P30554 whole entry): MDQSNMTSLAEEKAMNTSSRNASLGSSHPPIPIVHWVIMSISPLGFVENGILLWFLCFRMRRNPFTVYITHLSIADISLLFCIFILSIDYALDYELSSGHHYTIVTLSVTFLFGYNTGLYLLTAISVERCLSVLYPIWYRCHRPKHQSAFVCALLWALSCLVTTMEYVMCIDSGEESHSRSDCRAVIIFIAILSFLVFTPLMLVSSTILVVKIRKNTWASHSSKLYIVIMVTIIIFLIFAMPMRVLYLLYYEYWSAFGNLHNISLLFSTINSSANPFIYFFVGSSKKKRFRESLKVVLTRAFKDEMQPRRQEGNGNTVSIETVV
UniProt P35374, sequence (P35374 whole entry): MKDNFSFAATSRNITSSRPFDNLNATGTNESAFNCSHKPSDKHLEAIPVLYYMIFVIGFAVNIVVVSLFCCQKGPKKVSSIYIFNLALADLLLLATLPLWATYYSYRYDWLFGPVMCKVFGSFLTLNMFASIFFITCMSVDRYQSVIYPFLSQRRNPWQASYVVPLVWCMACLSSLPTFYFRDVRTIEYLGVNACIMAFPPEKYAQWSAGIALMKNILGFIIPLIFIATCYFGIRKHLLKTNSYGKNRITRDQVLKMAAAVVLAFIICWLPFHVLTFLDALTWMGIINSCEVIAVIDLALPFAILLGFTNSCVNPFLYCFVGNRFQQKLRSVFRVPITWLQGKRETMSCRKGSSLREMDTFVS
UniProt P29754, sequence (P29754 whole entry): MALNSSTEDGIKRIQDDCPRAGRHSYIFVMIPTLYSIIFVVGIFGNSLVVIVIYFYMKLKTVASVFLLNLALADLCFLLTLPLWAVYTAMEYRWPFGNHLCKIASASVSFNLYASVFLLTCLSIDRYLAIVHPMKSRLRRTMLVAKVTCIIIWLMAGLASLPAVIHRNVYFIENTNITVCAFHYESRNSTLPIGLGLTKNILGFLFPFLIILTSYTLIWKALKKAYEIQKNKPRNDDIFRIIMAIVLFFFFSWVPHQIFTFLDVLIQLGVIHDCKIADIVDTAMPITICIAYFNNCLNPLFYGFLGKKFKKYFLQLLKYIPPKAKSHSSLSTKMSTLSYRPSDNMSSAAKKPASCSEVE

| Substance | percent of cells with PLA signal [1] | red dots per dot-containing cell (red dots/cell-expressing dots) [1] | percent of cells with PLA signal [2] | red dots per dot-containing cell (red dots/cell-expressing dots) [2] | percent of cells with PLA signal [3] | percent of cells with PLA signal [4] | percent of cells with PLA signal [5] | red dots per dot-containing cell (red dots/cell-expressing dots) [5] | percent of cells with PLA signal [6] |
| --- | --- | --- | --- | --- | --- | --- | --- | --- | --- |
| ACE2, endogenous in mouse lung (from UniProt Q8R0I0 18-805) (enzyme) | 8 % of cells | 7 | 14 % of cells | 10 | < 1 % of cells | < 1 % of cells |  |  |  |
| ACE2, endogenous in mouse lung (from UniProt Q8R0I0 18-805) (proximity to ACE2) |  |  |  |  |  |  | 11 % of cells | 6 | < 1 % of cells |
